# In IntAct's records for PubMed 17805301:
# B1: CREB-regulated transcription coactivator 2 (Mus musculus), Q3U182 (parent)
# chain: MATSGANGPGSATASASNPRKFSEKIALQKQRQAEETAAFEEVMMDIGSTRLQAQKLRLAYTRSSHYGGSLPNVNQIGCGLAEFQSPLHSPLDSSRSTRHHGLVERVQRDARRMVSPLRRYPRHIDSSPYSPAYLSPPPESGWRRMMPWGNLPAEKGQLFRLPSALNRTSSDSALHTSVMNPNPQDTYPGPTPPSVLPSRRGGGFLDGEMDAKVPAIEENVVDDKHLLKPWDAKKLSSSSSRPRSCEVPGINIFPSPDQPANVPVLPPAMNTGGSLPDLTNLHFPPPLPTPLDPEETVYPSLSGGNSTTNLTHTMTHLGISGGLGLGPSYDVPGLHSPLSHPSLQSSLSNPNLQASLSSPQPQLQGSHSHPSLPASSLAHHALPTTSLGHPSLSAPALSSSSSSSSTSSPVLSAPPYPASTPGASPRHRRVPLSPLSLPAGPADARRSQQQLPKQFSPTMSPTLSSITQGVPLDTSKLPTDQRLPPYPYSPPSLVIPTHPPTPKSLQQLPSQACLVQPSGGQPPGRQPHYGALYPPGSSGHGQQPYHRPINDFSLGNLEQFNMESPSTSLVLDPPAFSEGPGFLGSEGSMSGPQDPHVLNHQNLTHCSRHGSGPNIILTGDSSPGFSKEIAAALAGVPGFEVSASGLELGLGLEDELRMEPLGLEGLTMLSDPCALLPDPAVEDSFRSDRLQ
# Variants of: B1
# Conditions: with cop1_mouse Cop1, Q9R1A8
# Sequence of cop1_mouse Cop1, Q9R1A8 (Q9R1A8 whole entry): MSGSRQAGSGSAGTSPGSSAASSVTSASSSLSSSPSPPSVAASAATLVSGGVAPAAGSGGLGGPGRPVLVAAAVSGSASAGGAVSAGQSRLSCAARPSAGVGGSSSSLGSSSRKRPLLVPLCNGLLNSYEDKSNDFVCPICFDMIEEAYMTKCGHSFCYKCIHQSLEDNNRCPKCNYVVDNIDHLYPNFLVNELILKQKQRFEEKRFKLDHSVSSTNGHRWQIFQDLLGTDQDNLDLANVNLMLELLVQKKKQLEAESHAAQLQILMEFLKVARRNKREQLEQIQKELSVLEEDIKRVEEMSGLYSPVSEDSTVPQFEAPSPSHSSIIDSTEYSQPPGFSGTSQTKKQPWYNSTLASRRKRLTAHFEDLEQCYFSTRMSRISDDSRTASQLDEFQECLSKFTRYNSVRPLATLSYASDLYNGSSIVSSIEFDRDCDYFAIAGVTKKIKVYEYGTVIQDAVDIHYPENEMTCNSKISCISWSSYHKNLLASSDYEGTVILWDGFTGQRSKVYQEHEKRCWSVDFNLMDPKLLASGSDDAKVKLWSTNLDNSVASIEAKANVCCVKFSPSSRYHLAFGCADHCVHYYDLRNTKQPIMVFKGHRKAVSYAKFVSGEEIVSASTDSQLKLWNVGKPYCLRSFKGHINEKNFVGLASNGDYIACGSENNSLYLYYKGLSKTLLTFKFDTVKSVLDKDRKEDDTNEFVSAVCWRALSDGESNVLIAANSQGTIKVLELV
row,Variant,effect of a mutation on the interaction
1,V214A;P215A,disrupting interaction strength
